Reference: patent US20200347144A1 (SHANGHAI HYAMAB BIOTECH, published 2020)
Where a chain is given by its changes, count along the chain named.

B1: 118F3A2 (antibody, V domains shown)
VH: QVQLQQWGAGLLKPSETLSLTCGVYGGSFSTNYWSWIRQSPGKGLEWIGEINHSGNTEYNPSLKSRLTISIDTSKNQFSLKLTSVTAADTAVYYCARMGYHSPSFDFWGQGVLVTVSS
VL: KIVMTQSPATLSVSPGERATLPCRVSQGIGSNLAWYQQKPGQAPRLLIYGASTRATGVPARFSGSGSGSEFTLTISSLQSEDLALYYCQQYNNWPLTFGGGTKVEIK
B2: 11H10C9 (antibody, V domains shown)
VH: QVQLVESGGGVVQPGRSLRLSCAASGFTFSSYAMHWVRQAPGKGLEWVAIIWYDGSNQYYADSVKGRFTISRDNSMNTLYLQMNSLRAEDTAVYYCARVEQWLVSYFDFWGQGTLVTVSS
VL: EIVMTQSPATLSVSPGERATLSCRASQSVSSNLAWYQQKPGQVPRLLIYGASTRATGIPARFSGSGSGTEFTLTISSLQSEDFAVYYCQQYNNWPTFGGGTKVEIK
B3: 172E3E3 (antibody, V domains shown)
VH: QVQLQESGPGLVKPSGTLSLTCAVSGGSISSSNWWSWVRQPPGKGLEWIGEIYHSGSTNYNPSLKSRVTISVDKSKNQLSLNLSSVTAADTAVYYCARQGGVAGTLYWYFDLWGRGTLVTVSS
VL: DIVMTQSPLSLPVTPGEPASISCRSSQGLLHSNGYNYLDWYLQKPGQSPQLLIYLGSNRASGVPDRFIGSGSGTDFTLKIRRVEAEDVGVYYCMQVLQTPWTFGQGTKVEIK
B4: 170D7F2 (antibody, V domains shown)
VH: QVQLVQSGAEVKKPGASVKVSCKASGYTFTSYDINWVRQATGQGLEWMGWMNPNSGNTGYAQKFQGRVTMTRNTSISTAYMELSSLRSEDTAVYYCARETGPFDYWGQGTLVTVSS
VL: DIQMTQSPSSLSASVGDRVTITCRASQRINNYLNWYQQKPGKAPKLLIYGASSLQSGVPSRFSGSGSGTDFTLTISSLQPEDFATYYCQQSYSTPFTFGPGTKVDIK
B5: 182A5B3 (antibody, V domains shown)
VH: B4 VH with A61V
VL: not shown
B6: 52F4G2 (antibody, V domains shown)
VH: QVQLQESGPGLVKPSETLSLTCAVSGYSISSGYYWGWIRQPPGKGLEWIGSIFHSGSSYYNPSLKSRVTISVDTSKNQFSLKLRSVTAADTAVYYCARESSGWNCFDYWGQGTLVTVSS
VL: DIQMTQSPSTLSASVGDRVTITCRASQTISTWLAWYQQKPGKAPKLLIYKASNLESGVPSRFSGSGSGTEFTLTISSLQPDDFATYYCQQYNSYSITFGQGTRLEIK
B7: 23G3B8 (antibody, V domains shown)
VH: B6 VH with G26A, S58N, T74P, R84S, A88V, W103Y
VL: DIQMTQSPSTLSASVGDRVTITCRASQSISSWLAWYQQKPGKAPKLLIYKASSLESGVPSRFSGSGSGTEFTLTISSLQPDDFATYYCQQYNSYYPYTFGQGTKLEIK
B8: 289B6G6 (antibody, V domains shown)
VH: QVQLQESGPGLVRPSETLSLTCAVSGYSISSGYYWGWIRQPPGKGLEWIGSIFHSGNTYYNPSLKSRVIVSGDTSKNQFSLKLSSVTAADTAVYYCTRESSGFNVFDIWGQGTMVTVSS
VL: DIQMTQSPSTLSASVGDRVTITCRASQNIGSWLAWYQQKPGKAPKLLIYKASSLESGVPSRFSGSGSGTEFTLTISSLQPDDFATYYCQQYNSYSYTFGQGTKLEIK

What follows are binders tested against T1, human 4-1BB, full length, on transfected cells (human, UniProt Q07011 24-255) (assay: FACS, CHOK1-h4-1BB cells; Ab 2 ug/ml).
T1 construct: whole, on cells; also called CHOK1-h4-1BB
T1 sequence (Q07011 24-255): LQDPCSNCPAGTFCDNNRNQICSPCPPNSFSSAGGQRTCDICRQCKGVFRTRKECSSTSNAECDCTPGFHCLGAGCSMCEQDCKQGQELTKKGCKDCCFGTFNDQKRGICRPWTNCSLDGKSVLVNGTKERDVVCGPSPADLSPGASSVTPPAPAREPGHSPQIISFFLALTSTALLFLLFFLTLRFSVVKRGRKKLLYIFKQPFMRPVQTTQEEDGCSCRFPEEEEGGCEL
Text: (§1) The pIRES plasmid carrying the full-length gene of monkey-derived […] (the preparation method is the same as the preparation method of the pCpC vector carrying the human-derived IgG Fc fragment (hFc) in “Preparation of immunogen A” of the step (1) in Example 1, in which the database accession number of the amino acid sequence of the extracellular region of monkey 4-1BB protein (Phe19-Thr239) is G7PSE7) was transfected into CHOK1 cell line to obtain CHOK1 stable transfected cell line containing monkey 4-1BB (herein referred to as CHOK1-c4-1BB stable cell line). The CHOK1-h4-1BB stable cell line and the CHOK1-c4-1BB stable cell line were expanded and cultivated to 90% confluence in T-75 cell culture flasks. The medium was exhausted, and washed twice with HBSS buffer (Hanks Balanced Salt Solution, purchased from Invitrogen), and then the cells were treated and collected with enzyme-free cell dissociation solution (Versene solution, purchased from Life Technology). The cells were washed twice with HBSS buffer, and after cell counting, the cells were diluted with HBSS buffer to 2×10⁶ cells per ml, and 1% goat serum blocking solution was added, the percentage being the mass percentage. It was incubated on ice for 30 minutes, and then washed twice with HBSS buffer by centrifugation. The collected cells were suspended in FACS buffer (HBSS containing 1% BSA, the percentage was the mass percentage) to 2×10⁶ cells/mL, and 100 μl per well was added to a 96-well FACS reaction plate. The purified 4-1BB antibody test sample obtained in Example 2 was added, 100 microliters per well and incubated on ice for 2 hours. […] It was washed three times with FACS buffer by centrifugation, and 100 μl of fixative [4% (v/v) paraformaldehyde] per well was added to suspend cells, and washed twice with FACS buffer after 10 minutes by centrifugation. The cells were suspended with 100 microliters of FACS buffer, and the results were detected and analyzed with FACS (FACS Calibur, purchased from BD).

Binder	average fluorescence intensity
B1	540 MFI
B2	520 MFI
B3	486 MFI
B4	736 MFI
B5	760 MFI
B6	600 MFI
B7	619 MFI
B8	1920 MFI

These binders were tested against T2, monkey 4-1BB on CHOK1 cells (monkey) (assay: FACS, CHOK1-c4-1BB cells; Ab 2 ug/ml).
T2 construct: whole, on cells; also called CHOK1-c4-1BB
Text: as §1

Binder	average fluorescence intensity
B1	688 MFI
B2	576 MFI
B3	305 MFI
B4	621 MFI
B5	712 MFI
B6	679 MFI
B7	586 MFI
B8	597 MFI

The binders below were run against T1, human 4-1BB, full length, on … (assay: FACS, CHOK1-h4-1BB cells; Ab 0.4 ug/ml).
Text: as §1

Binder	average fluorescence intensity
B1	508 MFI
B2	431 MFI
B3	413 MFI
B4	540 MFI
B5	530 MFI
B6	584 MFI
B7	541 MFI
B8	1520 MFI

What follows are binders tested against T1, human 4-1BB, full length, on … (assay: FACS, CHOK1-h4-1BB cells; Ab 0.08 ug/ml).
Text: as §1

Binder	average fluorescence intensity
B1	346 MFI
B2	200 MFI
B3	172 MFI
B4	183 MFI
B5	200 MFI
B6	410 MFI
B7	399 MFI
B8	453 MFI

The binders below were run against T2, monkey 4-1BB on CHOK1 cells (assay: FACS, CHOK1-c4-1BB cells; Ab 0.016 ug/ml).
Text: as §1

Binder	average fluorescence intensity
B1	41.2 MFI
B2	24.7 MFI
B3	16.7 MFI
B4	25.9 MFI
B5	33.2 MFI
B6	41.2 MFI
B7	34.2 MFI
B8	47.2 MFI

Each binder was assayed against T2, monkey 4-1BB on CHOK1 cells (assay: FACS, CHOK1-c4-1BB cells; Ab 0.0032 ug/ml).
Text: as §1

Binder	average fluorescence intensity
B1	11.8 MFI
B2	10.4 MFI
B3	6.6 MFI
B4	8.5 MFI
B5	10.4 MFI
B6	13.7 MFI
B7	10.8 MFI
B8	14.1 MFI

The binders below were run against T1, human 4-1BB, full length, on … (assay: FACS, CHOK1-h4-1BB cells; Ab 0.00064 ug/ml).
Text: as §1

Binder	average fluorescence intensity
B1	10.8 MFI
B2	6.4 MFI
B3	49.5 MFI
B4	4.9 MFI
B5	5 MFI
B6	11.7 MFI
B7	11.2 MFI
B8	8.9 MFI

Each binder was assayed against T2, monkey 4-1BB on CHOK1 cells (assay: FACS, CHOK1-c4-1BB cells; Ab 0.00064 ug/ml).
Text: as §1

Binder	average fluorescence intensity
B1	4.9 MFI
B2	3.7 MFI
B3	71.7 MFI
B4	4 MFI
B5	4.4 MFI
B6	4.5 MFI
B7	4.7 MFI
B8	5.3 MFI

What follows are binders tested against T3, hFc-tagged human 4-1BB extracellular domain protein (4-1BB-hFc) (human, UniProt Q07011 24-186, limits assumed) (assay: ELISA, coated human 4-1BB-hFc; Ab 0.0001 ug/ml).
T3 construct: also called immunogen A; 4-1BB^ECD-hFc; not shown: human IgG Fc fragment (hFc) of the pCpC vector
Protocol: (§2) The purified immunogen A (4-1BB-hFc), monkey 4-1BB-his, and mouse 4-1BB-his obtained in Example 1 [for the preparation method, see step 1 of Example 1, preparation of immunogen A], of which the extracellular domain of monkey-derived 4-1BB protein (purchased from ACRO biosystems), the extracellular domain of mouse 4-1BB protein (purchased from sino biological) or other immune detection point proteins respectively were diluted with PBS to a final concentration of 1.0 μg/mL, then added with […] per well to 96-well ELISA plate. It was sealed with plastic film and incubated at 4° C. overnight. The next day, the plate was washed twice with the plate-washing solution [PBS containing 0.01% (v/v) Tween20] and blocking solution [PBS containing 0.01% (v/v) Tween 20 and 1% (v/v) BSA] was added and blocked at room temperature for 2 hours. The blocking solution was discarded and 100 μl of the purified 4-1BB antibody obtained in Example 2 was added per well. After incubated at 37° C. for 2 hours, the plate was washed 3 times with a plate-washing solution [PBS containing 0.01% (v/v) Tween20]. A secondary antibody (purchased from Sigma) labeled with HRP (horseradish peroxidase) was added, and after incubated at 37° C. for 2 hours, the plate was washed 3 times with a plate-washing solution [PBS containing 0.01% (v/v) Tween20]. 100 μl of TMB substrate was added per well. After incubated for 30 minutes at room temperature, 100 μl of stop buffer (1.0N HCl) was added per well. The A450 nm values were read using an ELISA plate reader (SpectraMax 384plus, Molecular Device).

Binder	OD450 nm
B1	0.43 OD450 nm
B2	0.15 OD450 nm
B3	0.14 OD450 nm
B4	0.13 OD450 nm
B5	0.13 OD450 nm
B6	0.26 OD450 nm
B7	0.07 OD450 nm
B8	0.07 OD450 nm

Each binder was assayed against T3, hFc-tagged human 4-1BB extracellular … (assay: ELISA, coated human 4-1BB-hFc; Ab 0.0006 ug/ml).
Protocol: as §2

Binder	OD450 nm
B1	0.44 OD450 nm
B2	0.19 OD450 nm
B3	0.2 OD450 nm
B4	0.19 OD450 nm
B5	0.18 OD450 nm
B6	0.34 OD450 nm
B7	0.1 OD450 nm
B8	0.11 OD450 nm

Each binder was assayed against T3, hFc-tagged human 4-1BB extracellular … (assay: ELISA, coated human 4-1BB-hFc; Ab 0.0032 ug/ml).
Protocol: as §2

Binder	OD450 nm
B1	0.54 OD450 nm
B2	0.49 OD450 nm
B3	0.51 OD450 nm
B4	0.48 OD450 nm
B5	0.38 OD450 nm
B6	0.89 OD450 nm
B7	0.28 OD450 nm
B8	0.34 OD450 nm

Each binder was assayed against T1, human 4-1BB, full length, on … (assay: FACS on CHOK1-h4-1BB cells, Alexa 488 secondary antibody, average fluorescence intensity).
Text: as §1

Binder	EC50 (read off the curve)
B1	~0.05 µg/mL
B2	~0.1 µg/mL
B3	~0.1 µg/mL
B4	~0.2 µg/mL
B5	~0.2 µg/mL
B6	~0.05 µg/mL
